Stoichiometry N data for 1 substance are collected here from doi:10.1101/713933.

Broadly, the stoichiometry N is the number of molecules, sites or subunits per partner or assembly.

This experiment concerns the target portal protein of bacteriophage P23-45 (in situ, in the procapsid) (bacteriophage P23-45 (Thermus thermophilus phage)). The experiment is described as follows: cryo-EM structure.

With “portal protein of bacteriophage P23-45 (in situ, in the procapsid) (natural protein)”, the stoichiometry N came out at 12 subunits.
